Results published in US12715902B2 (dated 2026).

Key:
Assay in all cases: cytokine release
[1] = biological target: T1, ATM G2695V peptide on HLA-A*03:01 (human)
T1 peptide: LAGVVNLPK
Description: (§1) To confirm the specificity and activity of nucleic acid encoding TCRs against ATM and ARID1A, each of the codon optimized nucleic acids were introduced into donor T cells. The chimeric TCR-transduced T cells (TRBV9*01+TRAV14/DV4 chimeric TCR) were co-cultured with dendritic cells expressing wildtype ATM or mutated forms of ATM (G2695V, G2695A, G2695C, or G2695S). The chimeric TCR-transduced T cells (TRBV25-1+TRAV20 chimeric TCR) were co-cultured with dendritic cells expressing wildtype ARID1A or ARID1A H1960fs. After overnight incubation, the supernatant was assessed for production of interferon-gamma using an ELISA. […] See FIGS. 9A and 9B, respectively.

[2] = biological target: T2, ATM G2695A peptide on HLA-A*03:01 (human)
T2 peptide: LAGAVNLPK
Description: as §1

[3] = biological target: T3, ATM G2695C peptide on HLA-A*03:01 (human)
T3 peptide: LAGCVNLPK
Description: as §1

[4] = biological target: T4, ATM G2695S peptide on HLA-A*03:01 (human)
T4 peptide: LAGSVNLPK
Description: as §1

[5] = biological target: T5, ATM wild type (glycine at 2695) peptide on HLA-A*03:01 (human)
T5 peptide: LAGGVNLPK
Description: as §1

binding result [1]: recognises
binding result [2]: recognises
binding result [3]: recognises
binding result [4]: recognises
binding result [5]: no recognition
B1: TRBV9*01+TRAV14/DV4 TCR (TCR, V domains shown)
Valpha: AQKITQTQPGMFVQEKEAVTLDCTYDTSDQSYGLFWYKQPSSGEMIFLIYQGSYDEQNATEGRYSLNFQKARKSANLVISASQLGDSAMYFCAMREQGAQKLVFGQGTRLTINP
Vbeta: DSGVTQTPKHLITATGQQVTLRCSPRSGDLSVYWYQQSLDQGLQFLIQYYNGEERAKGNILERFSAQQFPDLHSELNLSSLELGDSALYFCASSAAVHYGYTFGSGTRLTVV
